± gives the uncertainty stated by the source.
Assay: amyloid nucleation score (Sup35N fusion, yeast selection) (log enrichment); library NNK3; higher = more nucleation; inactive = no reads after selection
Outline: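 Nucleation score: DiMSum log enrichment of output over input reads, centred on the mode score of non-aggregating sequences. Only sequences with at least 100 input reads were kept. Reads came from Illumina sequencing of plasmid inserts before and after 7 days of growth at 30°C without adenine and uracil, in psi-negative yeast expressing Sup35N fused to peptides of 20 random codons after 24 hours of induction with 100 μM copper sulfate.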

Substance | amyloid nucleation score
WRVPCLIVKYDV | inactive
CEEPFLNCHFLDY | inactive
IIFWNICPAYCYL | 2.29 ± 0.059
DATDCVRASMFMSFDASRH | 1.29 ± 0.13
SYYAHL | inactive
GALSYKSKSWRS | inactive
YSDIVFILDLGYCAF | 1.3 ± 0.091
PDKVWMYCQHICAVKMSLIC | inactive
CVTCLARLHDGPEGIVHLCT | inactive
MAFRETRWNFLLNKV | inactive
LSWRRCA | inactive
CSMVSWLIHCANMHRKTSTS | inactive
GYERSDKKLDKKVL | inactive
SYSQKKRHVSKSTGSRAWQA | inactive
SSHIRWHGN | inactive
CKTLFFCMWNCFCFTVYSWF | inactive
CIFFWSALARLFFGLFNYPC | inactive
LYVTILNVLLLHMTHSLFSG | inactive
ASASY | inactive
DQMIEDRNWNGVNDYSYNAC | inactive
LQCLNQVRSRLVVLLLIFNV | inactive
PIGGLEFNMGFRYRVIRVTM | -0.436 ± 1.7
LVSHSTMLPVSFFAHYRGEV | inactive
SSYLLRLLIFTSSIRRMFGS | inactive

Substance | amyloid nucleation score
SCGMERRLIIYSSSHNNILY | 0.178 ± 0.88
SLAKFNMNYGTYGLEGFSVW | -0.209 ± 0.81
TKAAMPRNNYLFILY | -0.278 ± 0.71
GFTLHHLTACVIGTCVFFSP | 1.93 ± 0.1
TIFSIDFIIVYT | 1.81 ± 0.057
WIWLGCPSVMSEEYMSDFHI | inactive
TPKTLDWAYGYNIVSGKAIN | inactive
LIRQRLDRLVQHFVDFRVFF | inactive
FSGGCSVYSMQLFLS | 1.43 ± 0.11
QVILHHMADKKAFISTSSSS | 1.52 ± 0.074
RLLRVGFMLRFLIMIRRVRF | -0.365 ± 1
FLGTHEGTDRLLWCVIEEKG | inactive
WDRSMMIAIDD | inactive
PTELYFHPDI | inactive
HGMTIMLGVGWYLWDGSTEG | 0.657 ± 0.16
TLSLVQQSR | inactive
EDVSSNIRWRHTGKGETVVM | inactive
TCGINYRGYEDPRPCRGTEI | inactive
LLDKVLSEPKTSQDRSENVA | -0.696 ± 1.1
MSTLVTMYHYGVGGCVWFYL | inactive
RDNWSVNLDTKHDLSIAGKL | inactive
YSSECALWNCRACVLYIHYR | 1.27 ± 0.16
SCMGFVRQANIVG | inactive
EMNSTFW | inactive

Substance | amyloid nucleation score
CYWPVCYSFGKLQACFYFEI | inactive
CRSGCQ | inactive
HVLNEWKSNTGLVVSSAWFC | 1.43 ± 0.087
LVDLRTVSYTLSQKMKFGGS | inactive
SYSWYFYSAGTSWI | inactive
NMLCTSL | 1.21 ± 0.11
WCYDDGQA | inactive
VSYLVCIDWVCPSGQWNAFW | 1.52 ± 0.11
HDRTVSLQYRVNTRVRLASW | inactive
QFLIVGFAYLPSLA | inactive
NWGLIMVSVEEDTDLGGSGM | -0.114 ± 0.88
SIGNCIFYTMAVFQWSTYTL | inactive
GAHFWKNGVGRWLPRNC | inactive
LGSDTPLKCVLSTMRMLRTG | inactive
RFWLDYEGRNAYWMGITHVW | inactive
LEWRMNVLMLFRNVMVHIAS | inactive
RLHLRKYFFETAHWICMNDG | inactive
LLTKSLNPYMMGCSSSIMQC | inactive
SYSRLWTQMNCTKVVNSYC | inactive
HQYWEGCSMLYL | inactive
DMSSSGITGTEFRCNYYHEY | inactive
YFVTTVKVEALFQ | -0.23 ± 0.55
LIFRRCLCNSSCYDLIAGRG | inactive
EYNPQLSRNSNDLYADELKE | inactive

Substance | amyloid nucleation score
EYMCACSLEILVL | inactive
DYVPIKFYRYYEILNVCRVV | inactive
GRCNLGSMNNWFKLPLKSVR | inactive
RGSCEFSSLECDTWSNRPSD | inactive
RPVSTSYVRLRRVRFSYNLN | inactive
YWQPWVNLDSYRCGHNSQFP | inactive
FNSKTLKLTFFMVVPEYCWW | inactive
VNVIDLFGFQPSNRLTGNVR | inactive
HSRMWVTGLVSCVSGYMQVV | inactive
QFVASELYVIGFTAVWLGCI | 0.902 ± 0.2
SHNSHGYFLSVLVVMRMSGR | inactive
SWRAVRRALLGRCNGSRVLV | inactive
VGEVGGYGEFAE | inactive
PLWTPDGPLIGVVFVLSNNV | 1.03 ± 0.15
DFRLFFCLYGVYNLRYCFGW | inactive
RLKRYLHSMTHRRMRERYCY | inactive
PSTSVPTDMMRFSIYSLLRS | inactive
CKSDFCISNVLWLYGLKFQR | inactive
SRYIRGTLCRAVSVNRPHVH | inactive
LNSSVYVLLRSILPSVWNQL | inactive
YCALLRNAITVV | inactive
LHPCEYALM | -1.4 ± 2.5
RVGTMLHGDWAYCHR | inactive
TDVIYVDGPLA | inactive

Substance | amyloid nucleation score
MCLSILE | inactive
KCNRFRG | inactive
CLRMGYVLRSRWERLDCLKW | inactive
MMFARKFAIKSTKRIMVGRT | inactive
NLSGIHIFLVSRLEWVLDNL | inactive
FHSQYEGAEERSPRNVLMAR | inactive
EHWCFINFLELICYQYLFLP | inactive
RTSVDQLEMKMRFSMSFGWL | 0.449 ± 0.64
GLYMKVKFGYTEWQDFGQSS | -0.237 ± 0.69
YSRSQTMSTACNVVYVFSGQ | inactive
RMWLD | inactive
RMFVSIRLLGTCCSDWSYYE | 1.78 ± 0.085
RSANLICLSPLSIIIRDKTL | inactive
CLQDPFPTIVPIVMGSIAKE | inactive
CDGPMSYMGLGTAGKR | inactive
VLRSNKYRITMGMGKKFPAL | inactive
RHYLLCYIKRHTRLQIYKFS | inactive
FNDYCSIKKSLTKSMYDLNG | inactive
DVCEGEIYDPDSLKWFYQFL | inactive
MRLNGFLRRKGRVSNMWHTG | inactive

Reference: the supplement of paper PMC12042874
